According to the Human Domainome abundance scans (Beltran et al. 2025):

B1: Transitional endoplasmic reticulum ATPase, residues 26 to 106; numbered along this chain, P55072 (parent)
chain: LIVDEAINEDNSVVSLSQPKMDELQLFRGDTVLLKGKKRREAVCIVLSDDTCSDEKIRMNRVVRNNLRVRLGDVISIQPCP

Variants of: B1
Experiment: abundance fitness (aPCA) (normalised: wild type 0, dead -1); higher = more abundant; growth selection in yeast, the domain comes from the species named
Details: Homo sapiens

Abundance fitness: each site, then its substitutions
K37: N -0.143, L -0.018, S 0.03, A -0.222, R 0.028, C -0.226, I -0.182, G -0.05, W -0.183, D -0.126, E -0.035, M 0.156, T -0.072, P -0.118, F -0.124
L33: C 0.055, E -0.19, P -0.955, W -0.155, K -0.045, T -0.03, S -0.122, G -0.344, D -0.572, R -0.068, H -0.031, Y 0.086, Q -0.109, V 0.042, M 0.019, F -0.318, I -0.23
Q25: L -0.149, H -0.168, S 0.027, R -0.081, A -0.116, I -0.043, T -0.102, V -0.202, E -0.156, K -0.013, M -0.106, Y -0.485, N 0.038, W -0.256, G -0.045, F -0.129, P -1, C 0.006, D 0.048
V32: P -1.09, C 0.007, S -0.854, W -0.988, G -0.587, Q -0.785, M -0.166, F -0.832, R -0.98, E -1.05, I -0.016, T -0.827, A -0.18
F27: A 0.042, D 0.069, W -0.101, V 0.044, G 0.016, R 0.009, C 0.045, M -0.045, K -0.023, H 0.028, N -0.022, T 0.127, E 0.095, S 0.085, Y -0.109, Q -0.098, I -0.04, P -0.238, L 0.026
G36: T -0.042, S -0.026, E -0.191, W -0.618, M -0.309, C 0.015, V -0.218, I -0.545, Q -0.688, L -0.757, Y -0.186, K -0.423, A -0.041, F -0.135, N 0.058, R -0.37, D -0.262
L24: W -0.265, P -0.551, Y -0.224, H -0.366, N -0.47, T -0.705, G -0.775, S -0.74, K -0.98, M -0.249, F -0.321, D -0.759, A -0.553, R -0.509, Q -0.516, V -0.429, C -0.574, I -0.338, E -0.709
M21: Q -0.752, R -0.888, K -0.881, P -0.902, S -1.03, E -0.731, V -0.759, C -0.435, L 0.048, T -0.825, H -1.21, Y -0.516, G -0.894, I -0.124, A -0.638
R39: D 0.008, K -0.041, G 0.008, M -0.142, L -0.054, A -0.001, F -0.007, C 0.034, E 0.056, I -0.082, N -0.17
D30: K -0.257, S -0.175, L -0.468, Y -0.732, M -0.047, F -0.638, T -0.051, I -0.68, H -0.11, A 0.005, R -0.258, G -0.107, E 0.108, C 0.035, N -0.176, Q 0.103, W -0.286
P19: W -0.016, Y 0.072, V 0.047
D22: Q 0.023, E -0.038, P -0.862, G -0.101, F -0.1, I -0.118, Y -0.067, V -0.049, T -0.037, A -0.109, R -0.015, L -0.008, W -0.281, C -0.083, N -0.036, M -0.06, S -0.084, K -0.063
T31: W -0.134, L -0.129, K 0.077, R 0.053, G -0.063, N -0.023, M -0.004, E 0.041, D -0.27, I -0.235, S -0.028, A -0.089, P -0.204, F -0.198, H -0.048, C -0.262, V -0.104, Y -0.161
L34: P -1.04, K -0.806, F -0.856, C 0.26, M -0.073, T -0.558, A -0.292, E -1.01, N -0.891, Q -0.461, R -0.963, G -0.46, S -0.757, V -0.047, W -0.777, I 0.074
R28: F -0.401, G -0.027, K 0.064, V 0.021, N 0.093, M 0.011, H 0.226, P -0.012, Q -0.008, E 0.094, S -0.009, L 0.012, I -0.061, A 0.085, C 0.053, T 0.034
E23: D -0.23, G -0.079, K -0.187, Y -0.164, V -0.142, T -0.041, N -0.112, I -0.126, A -0.103, R -0.09, F -0.263, Q -0.104, W -0.338, P -1.16, S -0.062, M 0.085, L -0.148, C -0.496, H -0.2
G29: A -0.203, S -0.109, W -0.268, L -0.209, T -0.391, R -0.197, M -0.098, E -0.198, D -0.172, V -0.612, P -1.06, C -0.259, Q -0.104, F -0.157, H 0.059, N -0.03
K38: Y -0.088, H -0.05, G 0.025, R -0.024, E -0.09, V -0.153, F -0.079, W -0.011, L 0.019, T 0.033, D -0.11, Q -0.051, A 0.02, C -0.225, I -0.282, S -0.097, M -0.018, N 0.186
K20: M 0.04, P -1.19, T -0.08, Q -0.014, N -0.093, I -0.008, H -0.389, V 0.004, E -0.705, L 0.01, W -0.391, A -0.005, D -0.39, S -0.162, R -0.019, C -0.096, F -0.233
K35: D -0.455, F -0.247, W -0.154, S 0.031, M -0.02, Q 0.078, A -0.096, N 0.032, T 0.117, L -0.058, G -0.088, P -0.869, Y -0.229, E -0.116, R 0.006, C 0.04
L26: V -0.027, M -0.047, R -0.939, C -0.346, W -0.447, S -0.838, P -0.859, I -0.078, T -0.462, E -1.02, H -0.609, D -0.768, Q -0.763, F -0.285, A -0.36
